Measured values taken from the supplement of paper PMC10126150.
± gives the standard deviation of the averaged measurements.

Test system: ATP
Test: switch fluorescence ratio, 500 uM ATP over buffer (Cy3 cluster intensity, sum of 5 cycles each) (fold (ratio)); higher = stronger signal-on switching upon ATP binding; sequences stand for … in TCGTCGGCAGCGTCAGATGTGTATAAGAGACAGTTTTTTTTTTTTTTTTTTTTTTTTT…TC
Conditions: aptamer strand: ATP DNA aptamer (quencher-CACCTGGGGGAGTATTGCGGAGGAAGG + anchor), 100 nM annealed; ATP concentration: 500 uM
How it was run: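 Per cluster, summed Cy3 intensity from the target cycles was divided by that from the buffer cycles to give the fluorescence ratio, then averaged per switch-domain sequence. Clusters outside 100-1000 RFU were excluded. The Cy3-labelled switching-strand clusters, on a modified Illumina MiSeq flow-cell, were annealed to 100 nM quencher-labelled ATP aptamer and imaged in selection buffer, then after 15 min with 500 uM ATP at 22 °C, for five cycles with NaOH stripping and re-annealing between them.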
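Also: ATP exposure 15 min at 22 °C before imaging.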

Sequence | switch fluorescence ratio
TGCTTTTTA | 0.971 ± 0.051
ACTTGTAATT | 0.997 ± 0.026
GGGAATGCTA | 0.9999 ± 0.0068
TTTTTTCATG | 0.988 ± 0.033
GATTTGTGAC | 0.977 ± 0.052
CGCGGTAGCG | 0.972 ± 0.041
TTACGTGTCG | 1.01 ± 0.068
GAGGGATGGG | 0.975 ± 0.017
TACATTGGGC | 1 ± 0.013
CGGTCGCCGG | 1.01 ± 0.02
TTCTAGGGGG | 1.02 ± 0.056
AATTTAATGG | 1.04 ± 0.053
GCCGCCGGGG | 0.996 ± 0.032
TGCGGGGCAG | 1.04 ± 0.072
GGACATTGG | 1.03 ± 0.02
GCATGGTGGC | 1.013 ± 0.0028
CAATGAGTTT | 0.97 ± 0.033
AGAAAGAGGT | 1.011 ± 0.0096
GAATTCCGTA | 1.03 ± 0.042
CGGGCATTAG | 1.209 ± 0.0071
TATTTCGAAC | 1.02 ± 0.015
GACGTGCGAC | 1.29 ± 0.079
GTGTGAGTGC | 1.06 ± 0.024

Sequence | switch fluorescence ratio
TCGGTAATC | 1.15 ± 0.0017
GAAATTTACT | 0.991 ± 0.053
TCGACACTGA | 1.058 ± 0.0022
TATCTATCCG | 0.985 ± 0.039
TAAGGGGTTA | 0.992 ± 0.029
AATGGCGGTA | 0.9928 ± 0.0082
AGATGTGGGT | 0.972 ± 0.02
ATATGTATCA | 1.06 ± 0.033
GATAACTGAA | 1.068 ± 0.0072
CAGTGTTATC | 1.01 ± 0.013
TTAATCGGTT | 1.005 ± 0.01
GACAGGTTGA | 0.993 ± 0.036
GTTAAAAAAA | 0.958 ± 0.021
ATCTGGACTA | 0.984 ± 0.033
ATGGGAAAAA | 1.01 ± 0.014
TCGACCTAAT | 1.077 ± 0.01
ACACGGGGGC | 1 ± 0.059
AAGAGGATGG | 0.979 ± 0.011
TGATTGAGGG | 0.9572 ± 0.0056
GGAGTGATTT | 1 ± 0.017
CGCTAGGAAA | 1.006 ± 0.0076
ATTTGTATCC | 0.994 ± 0.021
ATTGTATGGG | 0.9744 ± 0.0071

Sequence | switch fluorescence ratio
ATTTTGTTTG | 0.994 ± 0.012
TTCGGGCGTG | 0.994 ± 0.024
GATACATCGG | 1.03 ± 0.018
ATTCTTCTCA | 1.02 ± 0.028
AGCATGTGGT | 1 ± 0.026
TAGATTTTTT | 1.02 ± 0.019
GATGTTTGGG | 0.987 ± 0.019
ACTTGCGTCG | 0.981 ± 0.023
ACGGGCCTTG | 0.987 ± 0.0063
GAAGGTGGCT | 1.01 ± 0.026
ATTCACTCGG | 1.38 ± 0.48
AGTGAGAGGA | 0.9804 ± 0.007
GGATAAGGAG | 0.99 ± 0.051
GGTTTAATTT | 0.993 ± 0.026
AACAAGTAAT | 1 ± 0.018
CGGTTAGAGG | 0.989 ± 0.0013
GAAACTAGTT | 0.992 ± 0.013
ATTCAACGGG | 1.04 ± 0.013
TATGAAGGGG | 1.22 ± 0.34
TAAAATTGGT | 0.983 ± 0.027
GAGAGGTCGG | 1.012 ± 0.0016
TCTAAGTCGG | 0.987 ± 0.015
TATTTTTGCT | 0.981 ± 0.032

Sequence | switch fluorescence ratio
AGGTTCGGAT | 0.985 ± 0.056
ACGGAGGGCT | 1.02 ± 0.015
ACTATATAAT | 1.08 ± 0.014
TAATCCACGG | 1.05 ± 0.064
GTTTGCCTCC | 1.03 ± 0.021
GTGGGGTCGC | 0.978 ± 0.012
CGTATTCGTA | 0.978 ± 0.019
GAAATTAATA | 0.993 ± 0.027
AGTGAGGGTA | 0.983 ± 0.031
GGGTCATGTC | 0.934 ± 0.052
ATATGACTTT | 1.01 ± 0.052
TACAAAGGGA | 1.01 ± 0.027
TATTGATTGG | 0.9977 ± 0.0062
AGGACTTGAA | 1.02 ± 0.035
AAGCCGGAGC | 1.02 ± 0.053
CCGCTTTTAT | 2.69 ± 0.48
AGGGAAAAAG | 1.02 ± 0.045
GTTCATCCAG | 1.05 ± 0.017
GCGGCTTCGG | 1.04 ± 0.032
CGTAATGGCA | 1.01 ± 0.017
GAGGTCGAAA | 0.98 ± 0.013
TTAATATTAC | 1.01 ± 0.014
AATACGTGGA | 1.029 ± 0.0036

Sequence | switch fluorescence ratio
CACGTATTCA | 1.15 ± 0.045
GCGTGGTCAG | 0.97027 ± 0.00034
TTCTGTGGGT | 0.955 ± 0.057
TCATTAAGTT | 1.08 ± 0.094
TAAAGGGGTT | 0.986 ± 0.035
TTTTGACAGT | 0.996 ± 0.039
TTATTGCTTT | 1 ± 0.036
CAAAACGGTT | 1.02 ± 0.048
ACGGCGAGGG | 1.02 ± 0.039
GGACGAAGGG | 1.09 ± 0.018
TATCTCAACG | 1.045 ± 0.006
TGGGTATGAA | 0.977 ± 0.019
AATTTGGGGC | 0.982 ± 0.022
TCGGGTCGGG | 1 ± 0.021
CGGTTGGTTT | 1.02 ± 0.017
GCCGGGGCCT | 1.03 ± 0.042
GTTTGTGGCG | 0.959 ± 0.024
TAACAGGCGG | 0.991 ± 0.028
GGCAGGCGGA | 1 ± 0.012
AAATGGTGGT | 1.02 ± 0.018
TTCCGACTCT | 1.31 ± 0.014
ACGCGACGG | 1.13 ± 0.018
TTCGTCAGTT | 0.9992 ± 0.0073

Sequence | switch fluorescence ratio
TCTGAGTCCA | 1.032 ± 0.0022
AGCTCGACGC | 1.19 ± 0.064
CAGGGATAGT | 1.26 ± 0.32
ACTAGGTCCG | 1.005 ± 0.0016
GATAGGAAAT | 0.977 ± 0.036
CGGGCCGCGG | 1.06 ± 0.083
CAATTTTATA | 1.033 ± 0.0026
CAATGAGCCG | 1.02 ± 0.052
GAAAATTTTT | 1.06 ± 0.044
AAGTTCGTAA | 1.03 ± 0.0079
AAAGTCATGT | 1.02 ± 0.05
TGGTGGGGGG | 0.997 ± 0.037
TTGGCCACCG | 1.08 ± 0.096
TCGGATTATG | 0.9669 ± 0.0066
TAGGGAAGGG | 0.976 ± 0.032
TAAATTATTG | 0.9768 ± 0.0079
CCTTATGGGA | 0.982 ± 0.026
ATATGTGGAG | 0.987 ± 0.011
CGGGAGTGCT | 0.994 ± 0.019
TCGTCCGGTA | 1.29 ± 0.04
CCAGTGATGT | 1.04 ± 0.024
GCGATGGATA | 0.96 ± 0.056
GGCTCTCGTA | 0.992 ± 0.012

Sequence | switch fluorescence ratio
CGTATCCGGT | 1.03 ± 0.0019
TTTTCCATTT | 0.99 ± 0.023
CTGATAGGGA | 1.01 ± 0.019
TATGTCGCCA | 1.01 ± 0.024
ATTAGGTGTT | 1.03 ± 0.066
CGGTCAGGGG | 1.11 ± 0.023
CGCGAAGGGT | 1.01 ± 0.026
TTGATTTGTG | 0.997 ± 0.012
TGTATTATGG | 0.968 ± 0.0097
TAATGGTGTG | 1 ± 0.022
TAATTCAGGT | 1 ± 0.011
ATAGGGTGCT | 1.04 ± 0.027
CAGTGTGTGC | 1.03 ± 0.015
CAATACAGGG | 1.04 ± 0.042
GGGGTCTGAG | 0.989 ± 0.019
TCACTATTTA | 1.013 ± 0.0082
GTCGTTGCTA | 1.01 ± 0.015
GGGTGGACAG | 0.975 ± 0.017
TTGTAGTTTG | 0.977 ± 0.0071
